For orientation: IC50 means the concentration that gives 50% inhibition. A higher IC50 goes with weaker potency.

To fix the notation:
T1: IL-23R on human cells (IL-23R-expressing DB cells; human NK cells) (human, UniProt Q5VWK5 24-629)
T1 sequence (looked up): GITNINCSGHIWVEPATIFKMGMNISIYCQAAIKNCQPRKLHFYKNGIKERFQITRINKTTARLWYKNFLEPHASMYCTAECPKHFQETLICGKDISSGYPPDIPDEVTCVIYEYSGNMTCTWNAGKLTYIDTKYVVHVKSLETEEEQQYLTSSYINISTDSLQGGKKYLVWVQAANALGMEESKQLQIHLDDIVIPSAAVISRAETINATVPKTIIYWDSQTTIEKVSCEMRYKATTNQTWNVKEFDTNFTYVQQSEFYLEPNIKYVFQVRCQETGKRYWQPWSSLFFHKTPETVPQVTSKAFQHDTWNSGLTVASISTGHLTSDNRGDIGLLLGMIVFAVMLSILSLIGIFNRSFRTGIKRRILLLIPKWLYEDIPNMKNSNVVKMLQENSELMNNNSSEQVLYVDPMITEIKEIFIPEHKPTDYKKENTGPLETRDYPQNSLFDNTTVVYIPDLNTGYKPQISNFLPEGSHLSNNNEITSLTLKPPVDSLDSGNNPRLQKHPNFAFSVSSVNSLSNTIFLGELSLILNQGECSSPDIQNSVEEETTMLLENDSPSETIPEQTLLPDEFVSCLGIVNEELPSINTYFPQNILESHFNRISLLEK

T2: IL23R_huFC (human, UniProt Q5VWK5 24-353)
T2 sequence (looked up): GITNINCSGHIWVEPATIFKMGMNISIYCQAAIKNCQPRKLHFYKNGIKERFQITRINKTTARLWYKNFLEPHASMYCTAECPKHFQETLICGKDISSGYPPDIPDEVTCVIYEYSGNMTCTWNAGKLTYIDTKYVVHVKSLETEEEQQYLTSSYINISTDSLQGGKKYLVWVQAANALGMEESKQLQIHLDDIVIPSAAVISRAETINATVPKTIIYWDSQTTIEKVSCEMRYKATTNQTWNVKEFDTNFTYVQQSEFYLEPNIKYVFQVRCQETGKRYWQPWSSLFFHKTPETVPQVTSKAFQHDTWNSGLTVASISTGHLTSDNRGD

B1: Ac-[(D)Lys]-CRDWQCY-[1-Nal]-HTH-[ Sarc]-[AEP]-(D)Arg]-NH2 (peptide)
peptide: Ac-[dK]CRDWQCY[1Nal]HTH[Sar][PEG1][dR]-NH2
modifications: disulfide 2-7
SMILES: CC(=O)N[C@H](CCCCN)C(=O)N[C@H]1CSSC[C@@H](C(=O)N[C@@H](Cc2ccc(O)cc2)C(=O)N[C@@H](Cc2cccc3ccccc23)C(=O)N[C@@H](Cc2c[nH]cn2)C(=O)N[C@H](C(=O)N[C@@H](Cc2c[nH]cn2)C(=O)N(C)CC(=O)NCCOCCC(=O)N[C@H](CCCNC(=N)N)C(N)=O)[C@@H](C)O)NC(=O)[C@H](CCC(N)=O)NC(=O)[C@H](Cc2c[nH]c3ccccc23)NC(=O)[C@H](CC(=O)O)NC(=O)[C@H](CCCNC(=N)N)NC1=O
B2: Ac-CADWVCY-[1-Nal]-VTFG-NH2 (peptide)
peptide: Ac-CADWVCY[1Nal]VTFG-NH2
modifications: disulfide 1-6
SMILES: CC(=O)N[C@H]1CSSC[C@@H](C(=O)N[C@@H](Cc2ccc(O)cc2)C(=O)N[C@@H](Cc2cccc3ccccc23)C(=O)N[C@H](C(=O)N[C@H](C(=O)N[C@@H](Cc2ccccc2)C(=O)NCC(N)=O)[C@@H](C)O)C(C)C)NC(=O)[C@H](C(C)C)NC(=O)[C@H](Cc2c[nH]c3ccccc23)NC(=O)[C@H](CC(=O)O)NC(=O)[C@H](C)NC1=O

*1 amine or outer side, *2 acyl side, *3 side chain or, on linkers, in order; H or OH if unused. Bridges are numbered along the chain shown (N, C = ends). [ ]: non-standard residue; d: D form. Phe(4-(2-acetylaminoethoxy)) = 4-(2-acetamidoethoxy)-phenylalanine, CC(=O)NCCOc1ccc(C[C@H](N[*:1])C(=O)[*:2])cc1; 1Nal = N[C@@H](Cc1cccc2ccccc12)C(=O)O; 2Nal = N[C@@H](Cc1ccc2ccccc2c1)C(=O)O; AEF = NCCOc1ccc(C[C@H](N)C(=O)O)cc1; Suc = O=C(CCC(=O)[*:2])[*:1]; αMeK = C[C@](N)(CCCCN)C(=O)O; Dab = NCC[C@H](N)C(=O)O; Abu = CC[C@H](N)C(=O)O; Aib = CC(C)(N)C(=O)O; PEG1 = NCCOCCC(=O)O; Sar = CNCC(=O)O

One experiment concerns the target Rat IL-23R_huFC (rat). Description: rat ELISA vs IL-23.
With Ac-[Abu]QTWQC[AEF][2Nal][Aib]E[Dab](Ac)G-NH2 (thioether 1-6) [Ac-Cyclo-[[Abu]-QTWQC]-[Phe[4-(2-aminoethoxy)]]-[2-Nal]-[Aib]-E-[Dab(Ac)]-G-NH2], the half-inhibitory concentration (IC50) is < 10 nM.

For Ac-[Abu]QTWQC[Phe(4-(2-acetylaminoethoxy))][2Nal][αMeK](Ac)K(Ac)NG-NH2 (thioether 1-6) [Ac-Cyclo-[[Abu]-QTWQC]-[Phe[4-(2-(acetyl-aminoethoxy)]]-[2-Nal]-[α-MeLys(Ac)]-[Lys(Ac)]-NG-NH2], the concentration for half-maximal inhibition (IC50) was < 10 nM.

Regarding Ac-[Abu]QTWQC[AEF][2Nal][αMeK]K(Ac)NG-NH2 (thioether 1-6) [Ac-Cyclo-[[Abu]-QTWQC]-[Phe[4-(2-aminoethoxy)]]-[2-Nal]-[α-MeLys]-[Lys(Ac)]-NG-NH2], the IC50 was < 10 nM.

Ac-[Abu]QTWQC[Phe(4-(2-acetylaminoethoxy))][2Nal][αMeK](Ac)ENG-NH2 (thioether 1-6) [Ac-Cyclo-[[Abu]-QTWQC]-[Phe[4-(2-(acetyl-aminoethoxy)]]-[2-Nal]-[α-MeLys(Ac)]-ENG-NH2]: the concentration for half-maximal inhibition (IC50) was < 10 nM.

On to Ac-[Abu]QTWQC[AEF][2Nal][αMeK]ENG-NH2 (thioether 1-6) [Ac-Cyclo-[[Abu]-QTWQC]-[Phe[4-(2-aminoethoxy)]]-[2-Nal]-[α-MeLys]-ENG-NH2], for which the IC50 was < 10 nM.

For the molecule Suc-[Abu]QTWQC[AEF][2Nal][αMeK]K(Ac)NG-NH2 (thioether 1-6) [Succicinyl-Cyclo-[[Abu]-QTWQC]-[Phe[4-(2-aminoethoxy)]]-[2-Nal]-[α-MeLys]-[Lys(Ac)]-NG-NH2], the half-maximal inhibitory concentration (IC50) is < 10 nM.

Consider FXQTWQCFXKENN (as bracketed in name; thioether cyclo) [Ac-F-Cyclo-[[Abu]-QTWQC]]-[Phe[4-(2-aminoethoxy)]]-[2-Nal]-[α-MeLys]-ENN-NH2], for which the 50% inhibitory concentration (IC50) was < 10 nM.

As to TXQTWQCFXKENN (as bracketed in name; thioether cyclo) [Ac-T-Cyclo-[[Abu]-QTWQC]-[Phe[4-(2-aminoethoxy)]]-[2-Nal]-[α-MeLys]-ENN-NH2], the 50% inhibitory concentration (IC50) was < 10 nM.

For the next experiment, the target named is T1, IL-23R on human cells …. Description: cell-based or functional assay.
Ac-[Abu]QTWQC[AEF][2Nal][Aib]E[Dab](Ac)G-NH2 (thioether 1-6) [Ac-Cyclo-[[Abu]-QTWQC]-[Phe[4-(2-aminoethoxy)]]-[2-Nal]-[Aib]-E-[Dab(Ac)]-G-NH2]: the “pStat3 HTRF IC50” value is < 10 nM.

In the case of Ac-[Abu]QTWQC[Phe(4-(2-acetylaminoethoxy))][2Nal][αMeK](Ac)ENG-NH2 (thioether 1-6) [Ac-Cyclo-[[Abu]-QTWQC]-[Phe[4-(2-(acetyl-aminoethoxy)]]-[2-Nal]-[α-MeLys(Ac)]-ENG-NH2], the “pStat3 HTRF IC50” value is < 10 nM.

Regarding Ac-[Abu]QTWQC[AEF][2Nal][αMeK]ENG-NH2 (thioether 1-6) [Ac-Cyclo-[[Abu]-QTWQC]-[Phe[4-(2-aminoethoxy)]]-[2-Nal]-[α-MeLys]-ENG-NH2], the “pStat3 HTRF IC50” value was < 10 nM.

The target of a further experiment is T2, IL23R_huFC. Description: IL23-IL23R competitive ELISA. (ELISA stands for enzyme-linked immunosorbent assay.)
Consider B1, for which the IC50 lay in the range of 500 to 1000 nM.

Ac-GSVHCMTWECYWHTFG-NH2 (disulfide 5-10 (inferred)) [Ac-GSVHCMTWECYWHTFG-NH2] registered an IC50 of 500 to 1000 nM.

Molecule Ac-TQFDCRTWECYWHTFG-NH2 (disulfide 5-10 (inferred)) [Ac-TQFDCRTWECYWHTFG-NH2] had an IC50 of 500 to 1000 nM.

For the molecule Ac-GGGECENWECYWHTFG-NH2 (disulfide 5-10 (inferred)) [Ac-GGGECENWECYWHTFG-NH2], the IC50 fell in the range of 500 to 1000 nM.

Consider Ac-GDHKCSSWECYWHTFG-NH2 (disulfide 5-10 (inferred)) [Ac-GDHKCSSWECYWHTFG-NH2], for which the IC50 was in the range of 500 to 1000 nM.

Ac-REGTCSTWKCYWHTFG-NH2 (disulfide 5-10 (inferred)) [Ac-REGTCSTWKCYWHTFG-NH2] had a half-inhibitory concentration (IC50) of 500 to 1000 nM.

Consider Ac-GGVECNDWQCYWHTFG-NH2 (disulfide 5-10 (inferred)) [Ac-GGVECNDWQCYWHTFG-NH2], for which the IC50 was 500 to 1000 nM.

B2: the IC50 fell in the range of 500 to 1000 nM.

For Ac-DTPRCRTWECYWHTFG-NH2 (disulfide 5-10 (inferred)) [Ac-DTPRCRTWECYWHTFG-NH2], the IC50 lay in the range of 500 to 1000 nM.
